Measured values taken from paper PMC13391367 (Nature, 2025).
The star is where a group is joined. Biotin = O=C1N[C@H]2[C@H](CS[C@H]2CCCCC(=O)*)N1; fluorescein = fluorescein label

Target: T1, LENG8(283–346) (human, UniProt Q96PV6 283-346)
T1 construct: LENG8, human, residues 283–346 (conserved helical region N-terminal to the SAC3 domain); also called LENG8^283–346 WT; source: recombinant
T1 sequence (looked up): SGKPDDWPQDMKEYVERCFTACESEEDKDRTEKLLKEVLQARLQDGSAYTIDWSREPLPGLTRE
Assay: pull-down; biotinylated, fluorescein-labelled ZFC3H1 peptide (200 µg) on magnetic streptavidin beads; 15 μg LENG8(283–346) or its F301A mutant added, 60 min at 4 °C; 25 mM HEPES pH 7.9, 100 mM NaCl, 5% glycerol, 1 mM MgCl2, 1 mM TCEP, 0.01% Igepal CA-630; glycine pH 2.5 elution; Coomassie and fluorescein imaging
Details: both partners purified

binding result: binds
B1: Biotin-ZFC3H1^728–752 wild-type peptide, C-terminal fluorescein (peptide, UniProt O60293 728-752, looked up)
peptide: Biotin-NSVFGGLESMIKEARRTAEQASKPK-fluorescein
notes: ZFC3H1, human, residues 728–752; also called ZFC3H1 peptide WT
